Residue numbers refer to the chain shown, from its start. Where “and” joins values, the source holds several entries; their conditions need not be identical. Identical values can stand only once. Like-named read-outs stand apart in the source and are kept apart here.

Assay [1] deals with pre-existing anti-VH ADA in human serum. Put plainly: ADA confirmation assay (MSD) described previously, mean of 10 donor sera.
Assay [2] shares this target. Put plainly: ADA confirmation assay of Example 2 (MSD): test material against labelled DOM1H-131-206.
The target in assay [3] is T1, human TNFR1 (on human cells) (human, UniProt P19438 30-455).
T1 sequence (looked up): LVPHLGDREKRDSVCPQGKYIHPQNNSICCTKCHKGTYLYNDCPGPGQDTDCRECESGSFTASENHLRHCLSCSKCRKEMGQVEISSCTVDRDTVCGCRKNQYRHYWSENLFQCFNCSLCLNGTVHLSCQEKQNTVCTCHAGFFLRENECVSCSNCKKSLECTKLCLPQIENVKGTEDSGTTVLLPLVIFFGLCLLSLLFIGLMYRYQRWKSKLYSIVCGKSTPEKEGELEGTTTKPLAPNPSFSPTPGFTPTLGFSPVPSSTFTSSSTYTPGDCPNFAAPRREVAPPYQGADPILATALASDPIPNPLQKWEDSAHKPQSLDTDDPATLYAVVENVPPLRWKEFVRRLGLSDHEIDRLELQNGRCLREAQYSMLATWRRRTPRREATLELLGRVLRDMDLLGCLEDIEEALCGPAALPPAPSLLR
As to the kind of experiment: cell-based or functional assay.

Assay [4] deals with T2, cynomolgus monkey TNFR1 (on monkey cells) (cynomolgus monkey, UniProt Q2PFV5 30-455).
T2 sequence: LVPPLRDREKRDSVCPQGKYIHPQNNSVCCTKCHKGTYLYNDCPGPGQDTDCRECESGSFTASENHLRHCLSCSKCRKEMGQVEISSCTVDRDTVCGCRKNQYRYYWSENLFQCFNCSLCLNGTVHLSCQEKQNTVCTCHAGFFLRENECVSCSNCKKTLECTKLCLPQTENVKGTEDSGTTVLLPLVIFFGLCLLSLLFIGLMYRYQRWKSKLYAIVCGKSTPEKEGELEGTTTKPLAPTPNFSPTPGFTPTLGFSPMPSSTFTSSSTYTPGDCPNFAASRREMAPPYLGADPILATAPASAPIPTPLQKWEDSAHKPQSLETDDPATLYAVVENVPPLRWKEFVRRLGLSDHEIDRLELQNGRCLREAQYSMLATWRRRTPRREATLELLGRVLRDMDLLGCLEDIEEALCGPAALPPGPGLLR
Put plainly: cell-based or functional assay.

In another assay the target is T3, cynomolgus monkey TNFR1 (cynomolgus monkey, UniProt Q2PFV5 30-211).
T3 sequence: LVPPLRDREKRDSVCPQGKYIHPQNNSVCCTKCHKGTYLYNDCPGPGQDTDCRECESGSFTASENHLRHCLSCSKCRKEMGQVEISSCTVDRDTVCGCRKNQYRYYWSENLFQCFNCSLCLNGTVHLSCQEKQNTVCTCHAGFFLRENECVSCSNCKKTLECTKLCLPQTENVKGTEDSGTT
As to the kind of experiment: SPR (Biacore T100), same format with cynomolgus monkey TNFR1, dAb as analyte, 1:1 model.

Assay [5] concerns the target pre-existing anti-VH ADA in human serum. As to the kind of experiment: ADA confirmation assay (MSD): 10 ug/mL test material against labelled DOM1H-131-206, mean of 10 sera.
The target of assay [6] is T4, Recombinant human TNFR1-Fc (human, UniProt P19438 30-211, limits assumed).
T4 construct: bought reagent; also called hTNFR1:Fc; not shown: Fc part; not described
T4 sequence (looked up): T3 sequence with P4H, R6G, V28I, Y105H, T159S, T170I
Put plainly: SPR (Biacore T100): TNFR1:Fc captured by anti-human IgG on a CM4 chip, dAb as analyte, 1:1 model.

Assay [7] addresses pre-existing anti-VH ADA in human serum. Put plainly: ADA confirmation assay (MSD): 10 ug/mL test material against labelled DOM1H-131-206; share of 10 ADA-positive sera with binding.
Assay [8] deals with T4, Recombinant human TNFR1-Fc. Put plainly: ELISA: dAb on coated recombinant human TNFR1-Fc, anti-Vh detection.
Assay [9] has as its target pre-existing anti-VH ADA in human serum. As to the kind of experiment: ADA confirmation assay (MSD): 10 ug/mL test material against labelled DOM1H-131-206, mean of 10 sera. The source holds these as a separate data set.
For assay [10] the target is unchanged. As to the kind of experiment: ADA confirmation assay (MSD): 10 ug/mL test material against labelled DOM1H-131-206; share of 10 ADA-positive sera with binding. The source holds these as a separate data set.
Assay [11] addresses T4, Recombinant human TNFR1-Fc. As to the kind of experiment: ELISA: dAb on coated recombinant human TNFR1-Fc.

B1: DOM10H-53-567 C-terminal ASTKG (protein)
VH: GVQLLESGGGLVQPGGSLRLSCAASGFVFAWYDMGWVRQAPGKGLEWVSSIDWHGEVTYYADSVKGRFTISRDNSKNTLYLQMNSLRAEDTAVYYCATAEDEPGYDYWGQGTLVTVSSASTKG
In turn, B1 gave a % inhibition in confirmation assay in [1] of 13.4%.

B2: VHH2(f) + A (VHH)
VHH: EVQLVESGGGLVQPGGSLRLSCAASGRTFSYNPMGWFRQAPGKGRELVAAISRTGGSTYYPDSVEGRFTISRDNAKRMVYLQMNSLRAEDTAVYYCAAAGVRAEDGRVRTLPSEYTFWGQGTQVTVSSAAAEVQLVESGGGLVQPGGSLRLSCAASGRTFSYNPMGWFRQAPGKGRELVAAISRTGGSTYYPDSVEGRFTISRDNAKRMVYLQMNSLRAEDTAVYYCAAAGVRAEDGRVRTLPSEYTFWGQGTQVTVSSA
For B2, the Mean % Inhibition in assay [2] was 17.5%.

B3: DOM10H-53-567 C-terminal ASTK (protein)
VH: GVQLLESGGGLVQPGGSLRLSCAASGFVFAWYDMGWVRQAPGKGLEWVSSIDWHGEVTYYADSVKGRFTISRDNSKNTLYLQMNSLRAEDTAVYYCATAEDEPGYDYWGQGTLVTVSSASTK
Take B3: in assay [1], the % inhibition in confirmation assay was 27.7%.

B4: DOM10H-53-567 C-terminal AS (protein)
VH: GVQLLESGGGLVQPGGSLRLSCAASGFVFAWYDMGWVRQAPGKGLEWVSSIDWHGEVTYYADSVKGRFTISRDNSKNTLYLQMNSLRAEDTAVYYCATAEDEPGYDYWGQGTLVTVSSAS
B4 returned a % inhibition in confirmation assay in [1] of 14.8%.

B5: DOM1H-131-206 (other)
VH: EVQLLESGGGLVQPGGSLRLSCAASGFTFAHETMVWVRQAPGKGLEWVSHIPPDGQDPFYADSVKGRFTISRDNSKNTLYLQMNSLRAEDTAVYHCALLPKRGPWFDYWGQGTLVTVSS
notes: human anti-TNFR1 VH domain antibody (dAb); biotinylated or Sulfo-Tag labelled where it is the assay reagent
In the case of B5, in assay [3], the “IC50, inhibition of TNFα-induced IL-8, A549 human lung epithelium (n = 2)” value came to 1 nM; the “IC50, inhibition of TNFα-induced IL-8, Human whole blood (n = 3-5)” value was determined as 1.6 nM; the “IC50, inhibition of TNFα-induced IL-8, MRC5 human lung fibroblast (n = 3)” value was 4.8 nM. Moreover, in [4], the “IC50, inhibition of LPS-induced IL-8, Cynomolgus monkey whole blood (n = 3)” value is 0.5 nM and the “IC50, inhibition of TNFα-induced IL-8, CYNOMK1 Cynomolgus monkey skin fibroblasts (n = 2)” value was 4.8 nM. In the assay with cynomolgus monkey TNFR1, this molecule registered a Kd of 0.015 nM, a koff of 0.000151 s⁻¹ and a kon of 1.01e+07 M⁻¹ s⁻¹. For the same molecule, in assay [5], the Mean % inhibition of signal in confirmation assay is 96.1% and 99.5%. Further, in [6], the Kd stood at 0.0143 nM, the off-rate (koff) was 0.000142 s⁻¹ and the kon was found to be 9.94e+06 M⁻¹ s⁻¹. Besides, the % subjects with ADA binding (10 subjects) (% of subjects) in assay [7] was found to be 100.

B6: DOM1H-131-206 A84T (other, name in Kabat numbering)
VH: B5 VH with A88T
notes: VH dAb variant
For B6, the EC50 in assay [8] stood at 0.79 nM. In addition, the Mean % inhibition of signal in confirmation assay in assay [9] was found to be 91%. In assay [10], this molecule yielded a % subjects with ADA binding (10 subjects) (% of subjects) of 100.

B7: DOM10H-53-567 C-terminal AST (protein)
VH: GVQLLESGGGLVQPGGSLRLSCAASGFVFAWYDMGWVRQAPGKGLEWVSSIDWHGEVTYYADSVKGRFTISRDNSKNTLYLQMNSLRAEDTAVYYCATAEDEPGYDYWGQGTLVTVSSAST
In assay [1], B7 returned a % inhibition in confirmation assay of 29%.

B8: DOM1H-131-206 C-terminal ASTKGP (other)
VH: EVQLLESGGGLVQPGGSLRLSCAASGFTFAHETMVWVRQAPGKGLEWVSHIPPDGQDPFYADSVKGRFTISRDNSKNTLYLQMNSLRAEDTAVYHCALLPKRGPWFDYWGQGTLVTVSSASTKGP
notes: VH dAb variant
With B8, in assay [11], the “fold change of EC50 against the parental dAb DOM1H-131-206” value was roughly 5 fold. In addition, in assay [5], the Mean % inhibition of signal in confirmation assay turned out to be 42.6%. In addition, the % subjects with ADA binding (10 subjects) (% of subjects) in assay [7] amounted to 60.

B9: Clone VHH2(f) (VHH)
VHH: EVQLVESGGGLVQPGGSLRLSCAASGRTFSYNPMGWFRQAPGKGRELVAAISRTGGSTYYPDSVEGRFTISRDNAKRMVYLQMNSLRAEDTAVYYCAAAGVRAEDGRVRTLPSEYTFWGQGTQVTVSSAAAEVQLVESGGGLVQPGGSLRLSCAASGRTFSYNPMGWFRQAPGKGRELVAAISRTGGSTYYPDSVEGRFTISRDNAKRMVYLQMNSLRAEDTAVYYCAAAGVRAEDGRVRTLPSEYTFWGQGTQVTVSS
The molecule B9 gave a Mean % Inhibition in [2] of 94.2%.

B10: DOM1H-131-206 with a C-terminal alanine extension (other)
VH: EVQLLESGGGLVQPGGSLRLSCAASGFTFAHETMVWVRQAPGKGLEWVSHIPPDGQDPFYADSVKGRFTISRDNSKNTLYLQMNSLRAEDTAVYHCALLPKRGPWFDYWGQGTLVTVSSA
notes: VH dAb variant
On to B10, for which, in [3], the “IC50, inhibition of TNFα-induced IL-8, A549 human lung epithelium (n = 2)” value came out at 1 nM; the “IC50, inhibition of TNFα-induced IL-8, Human whole blood (n = 3-5)” value was found to be 0.9 nM; the “IC50, inhibition of TNFα-induced IL-8, MRC5 human lung fibroblast (n = 3)” value turned out to be 3.5 nM. Further, in assay [4], the “IC50, inhibition of LPS-induced IL-8, Cynomolgus monkey whole blood (n = 3)” value turned out to be 0.4 nM and the “IC50, inhibition of TNFα-induced IL-8, CYNOMK1 Cynomolgus monkey skin fibroblasts (n = 2)” value was 4.7 nM. In the assay with cynomolgus monkey TNFR1, this molecule gave a dissociation constant (Kd) of 0.0197 nM, a koff of 0.000189 s⁻¹ and an on-rate (kon) of 9.6e+06 M⁻¹ s⁻¹. Besides, the Mean % inhibition of signal in confirmation assay in [5] was determined as 15.7%. The same molecule had a Mean % inhibition of signal in confirmation assay in [9] of 1.12%. Moreover, in [6], the dissociation constant (Kd) is 0.0253 nM, the koff was 0.000229 s⁻¹ and the kon worked out at 9.02e+06 M⁻¹ s⁻¹.
